Results: article PMC8754649, “Structural basis of dimerization and nucleic acid binding of human DBHS proteins NONO and PSPC1” (Nucleic Acids Research, 2021)

Legend:
[1] = molecular target: the molecule itself; test: crystal structure; PSPC1 aa61–320 homodimer; one dimer in the asymmetric unit; 3.17 Å; hanging drop, 100 mM malic acid pH 7.0, 28% PEG 3350, 100 mM Tris pH 7.0
[2] = molecular target: the molecule itself; test: crystal structure; NONO aa53–312 homodimer; six dimers (12 monomers) in the asymmetric unit; 2.60 Å; crystallization and phasing described in ref. 38

B1: PSPC1-DBHS (paraspeckle protein component 1, aa61–320) (domain or fragment, human, UniProt Q8WXF1 61-320, looked up)
chain: MGFTIDIKSFLKPGEKTYTQRCRLFVGNLPTDITEEDFKRLFERYGEPSEVFINRDRGFGFIRLESRTLAEIAKAELDGTILKSRPLRIRFATHGAALTVKNLSPVVSNELLEQAFSQFGPVEKAVVVVDDRGRATGKGFVEFAAKPPARKALERCGDGAFLLTTTPRPVIVEPMEQFDDEDGLPEKLMQKTQQYHKEREQPPRFAQPGTFEFEYASRWKALDEMEKQQREQVDRNIREAKEKLEAEMEAARHEHQLMLM
notes: human PSPC1, conserved DBHS region, aa61–320 relative to UniProt entry PSPC1_HUMAN; also called PSPC1 homodimer; PSPC1 (aa61–320); source: E. coli Rosetta2 (DE3), purified (Ni Hi-Trap, TEV digestion, reverse Hi-Trap, Superdex 200)
**Q.** Does B1 bind [1]?
**A.** Result: binds

B2: NONO-DBHS (non-POU domain-containing octamer-binding protein, aa53–312) (domain or fragment, human, UniProt Q15233 53-312, looked up)
chain: EGLTIDLKNFRKPGEKTFTQRSRLFVGNLPPDITEEEMRKLFEKYGKAGEVFIHKDKGFGFIRLETRTLAEIAKVELDNMPLRGKQLRVRFACHSASLTVRNLPQYVSNELLEEAFSVFGQVERAVVIVDDRGRPSGKGIVEFSGKPAARKALDRCSEGSFLLTTFPRPVTVEPMDQLDDEEGLPEKLVIKNQQFHKEREQPPRFAQPGSFEYEYAMRWKALIEMEKQQQDQVDRNIKEAREKLEMEMEAARHEHQVMLM
notes: Cloned into the first expression cassette of pET-Duet1; also called NONO homodimer; P54nrb; not shown: His6, N-terminal, cleaved
**Q.** Does B2 bind [2]?
**A.** Result: binds
